Measurements: patent publication US20250304677A1 (VIB VZW, published 2025)
Residue numbers refer to the chain shown, from its start. Names may count otherwise. “And” between values parts separate entries of the source, which are not always exact repeats. Equal entries are not always repeated. Values belong to the binder of their own block, whether it stands above or below them.

Legend:
[1] = target: T1, mouse folate receptor alpha (mFRα), recombinant protein (mouse, UniProt P35846 25-232); assay: BLI
T1 construct: Bought recombinant proteins (e.g. biotinylated, Acro Biosystems FO1-M82E9); also called mFOLR1; Ms FOLR1
Method in brief: (§1)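 Biotinylated human and mouse folate receptor alpha were immobilised on streptavidin biosensors, and off-rates were read by biolayer interferometry, with a 1:1 binding model applied in the calculation. Each variant's koff is expressed as a signed fold change relative to its wild-type VHH, positive as wild-type over variant for a better off-rate and negative as variant over wild-type for a worse one.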

[2] = target: T2, human folate receptor alpha (hFRα), recombinant protein (human, UniProt P15328 25-233); assay: BLI
T2 construct: Bought recombinant proteins (His-tagged, or biotinylated via Avi-tag, e.g. AcroBiosystems FO1-H82E2, F01-H52H1); also called hFOLR1; huFOLR1
Method in brief: as §1

[3] = target: T3, human folate receptor alpha expressed on cells (transfected HEK293T, HeLa, MCF7, MDA-MB-231) (human, UniProt P15328 25-234); assay: flow cytometry on HeLa cells, anti-Flag detection
T3 construct: HEK293T transiently transfected with human FOLR1; also called native human FRα; cell-expressed human FOLR1
Procedure: EC₅₀ values are found in Table 9. Detection of VHH cell binding was done through anti-Flag M2 mIgG1 followed by anti-mFc-PE in flow cytometry. Results are depicted as mean fluorescence intensity ^{∘}MFI).
(§2) Off-rates of purified variants were determined to human, mouse, and cynomolgus FRα in BLI. In addition, binding of the affinity optimised variants to cell-expressed human FRα on HeLa cells was determined by flow cytometry ^{∘}FIG. 10 B).

[4] = target: T1, mouse folate receptor alpha (mFRα), …; assay: BLI, Avi-biotinylated FRα
Procedure: (§3) Purified VHHs ^{∘}100 nM) were analysed for binding to avi-tagged biotinylated FRα protein captured on streptavidin-biosensors via BLI.
as §2

[5] = target: T2, human folate receptor alpha (hFRα), …; assay: BLI, Avi-biotinylated FRα
Procedure: as §3, §2

[6] = target: T4, cynomolgus folate receptor alpha, recombinant (cynomolgus, UniProt A0A2K5U044 25-233); assay: BLI, purified VHH
T4 construct: also called cyFOLR1; cynomolgus FRα
Method in brief: (§4)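 Affinity-optimised VHH variants were produced as flag3-His6-tagged proteins in TG-1 E. coli at 0.5 L scale. They were purified from the periplasmic fraction on Ni Sepharose FastFlow columns, desalted, and checked for purity by SDS-PAGE. Off-rates to human, mouse and cynomolgus folate receptor alpha were then determined by biolayer interferometry.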

[7] = target: T1, mouse folate receptor alpha (mFRα), …; assay: BLI, purified VHH
Method in brief: as §4

[8] = target: T2, human folate receptor alpha (hFRα), …; assay: BLI, purified VHH
Method in brief: as §4

T3 sequence (P15328 25-234 limits assumed): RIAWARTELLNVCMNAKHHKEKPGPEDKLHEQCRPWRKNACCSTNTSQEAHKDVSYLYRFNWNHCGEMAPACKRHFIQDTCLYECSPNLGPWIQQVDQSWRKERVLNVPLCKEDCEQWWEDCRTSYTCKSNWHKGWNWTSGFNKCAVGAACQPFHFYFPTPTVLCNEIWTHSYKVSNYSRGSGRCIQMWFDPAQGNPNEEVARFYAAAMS
T2 sequence (P15328 25-233 limits assumed): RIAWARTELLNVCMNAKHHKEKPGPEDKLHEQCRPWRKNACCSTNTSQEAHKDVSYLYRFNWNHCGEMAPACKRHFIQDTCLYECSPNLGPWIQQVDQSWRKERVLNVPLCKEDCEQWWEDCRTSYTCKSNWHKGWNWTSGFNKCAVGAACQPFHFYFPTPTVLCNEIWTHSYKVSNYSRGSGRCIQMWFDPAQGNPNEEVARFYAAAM
T4 sequence (A0A2K5U044 entry or part of it): as the sequence (P15328 25-233 limits assumed) above, with I2T, W4R, R37K, A146P, H171Y counted along it
T1 sequence (P35846 25-232 limits assumed): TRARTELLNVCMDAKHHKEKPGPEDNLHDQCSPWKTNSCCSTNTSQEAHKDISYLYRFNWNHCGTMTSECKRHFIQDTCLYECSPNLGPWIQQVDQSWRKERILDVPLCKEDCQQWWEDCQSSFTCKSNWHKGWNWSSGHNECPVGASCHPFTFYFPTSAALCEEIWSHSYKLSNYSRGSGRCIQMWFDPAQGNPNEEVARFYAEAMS

koff [1]: 0.00762 s⁻¹
nm (Fold wt) [1]: 4.7
koff [2]: 0.0712 s⁻¹
nm (Fold wt) [2]: 5.4
B1: P01500012: P0150001 with M32I (VHH)
VHH: EVQLVESGGGLVQPGGSLRLSCAASGSGFSGIIMGWYRQAPGKQRELVATVTSHGTTNYADSVKGRFTISRDNAKNTVYLQMNSLRPEDTAVYYCNAHFPGIYWGKGTLVTVSS
notes: Entry carries a His6 tag

EC50 [3]: 10.9 nM
MFI top [3]: 46600 MFI
koff [4]: 0.000826 s⁻¹
koff [5]: 0.00648 s⁻¹
koff [6]: 0.000393 s⁻¹
koff [7]: 0.00105 s⁻¹
koff [8]: 0.00569 s⁻¹
B2: P01500049: P01500001(G26E)-FLAG3-HIS6 (VHH)
VHH: B1 VHH with G26E, I32M
notes: also called P0150049

koff [4]: 0.000292 s⁻¹
koff [5]: 0.0019 s⁻¹
koff [6]: 0.000292 s⁻¹
koff [7]: 0.000333 s⁻¹
koff [8]: 0.00204 s⁻¹
B3: P01500059: P01500001(G26E, D72E)-FLAG3-HIS6 (VHH)
VHH: B1 VHH with G26E, I32M, D72E
notes: also called P0150059

EC50 [3]: 3.31 nM
MFI top [3]: 61000 MFI
koff [4]: 4.99e-05 s⁻¹ and 8.33e-05 s⁻¹
koff [5]: 0.000474 s⁻¹ and 0.000555 s⁻¹
koff [6]: 0.00078 s⁻¹
koff [7]: 8.41e-05 s⁻¹
koff [8]: 0.000546 s⁻¹
B4: P01500051: P01500001(D72E, N73G)-FLAG3-HIS6 (VHH)
VHH: B1 VHH with I32M, D72E, N73G
notes: also called P0150051

EC50 [3]: 5.18 nM
MFI top [3]: 55800 MFI
koff [4]: 0.000147 s⁻¹
koff [5]: 0.000937 s⁻¹
koff [6]: 0.000147 s⁻¹
koff [7]: 0.000147 s⁻¹
koff [8]: 0.000968 s⁻¹
B5: P01500054: P01500001(I33L, N73P)-FLAG3-HIS6 (VHH)
VHH: B1 VHH with I32M, I33L, N73P
notes: also called P0150054

EC50 [3]: 4.35 nM
MFI top [3]: 53900 MFI
koff [4]: 0.000246 s⁻¹
koff [5]: 0.0018 s⁻¹
koff [6]: 0.00281 s⁻¹
koff [7]: 0.000246 s⁻¹
koff [8]: 0.00146 s⁻¹
B6: P01500052: P01500001(V51R, D72E)-FLAG3-HIS6 (VHH)
VHH: B1 VHH with I32M, V51R, D72E
notes: also called P0150052

EC50 [3]: 4.2 nM
MFI top [3]: 63000 MFI
koff [4]: 0.000191 s⁻¹
koff [5]: 0.00113 s⁻¹
koff [6]: 0.00014 s⁻¹
koff [7]: 0.00014 s⁻¹
koff [8]: 0.00094 s⁻¹
B7: P01500041: P01500001(D72P, N73G)-FLAG3-HIS6 (VHH)
VHH: B1 VHH with I32M, D72P, N73G
notes: also called P0150041

EC50 [3]: 4.71 nM
MFI top [3]: 58900 MFI
koff [4]: 0.00036 s⁻¹
koff [5]: 0.00187 s⁻¹
koff [6]: 0.00036 s⁻¹
koff [7]: 0.00036 s⁻¹
koff [8]: 0.00157 s⁻¹
B8: P01500045: P01500001(G26E, I33L)-FLAG3-HIS6 (VHH)
VHH: B1 VHH with G26E, I32M, I33L
notes: also called P0150045

koff [1]: 0.00376 s⁻¹
nm (Fold wt) [1]: 2.3
koff [2]: 0.0269 s⁻¹
nm (Fold wt) [2]: 2
B9: P01500087: P0150001 with A24L, S27A, M32P, N67E (VHH)
VHH: B1 VHH with A24L, S27A, I32P, N76E

koff [1]: 0.0154 s⁻¹
nm (Fold wt) [1]: 9.4
koff [2]: 0.381 s⁻¹
nm (Fold wt) [2]: 29
B10: P01500088: P0150001 with S27T, M32I (VHH)
VHH: B1 VHH with S27T

koff [1]: 0.00176 s⁻¹
nm (Fold wt) [1]: 1.1
koff [2]: 0.0159 s⁻¹
nm (Fold wt) [2]: 1.2
B11: P01500085: P0150001 with A24V, S27L, M32P (VHH)
VHH: B1 VHH with A24V, S27L, I32P

koff [1]: 0.0618 s⁻¹
nm (Fold wt) [1]: 38
B12: P01500082: P0150001 with A24V, S27L, M32I (VHH)
VHH: B1 VHH with A24V, S27L

EC50 [3]: 6.91 nM
MFI top [3]: 50800 MFI
koff [4]: 0.000777 s⁻¹ and 0.000731 s⁻¹
koff [5]: 0.00371 s⁻¹ and 0.004 s⁻¹
koff [6]: 0.0036 s⁻¹
koff [7]: 0.000754 s⁻¹
koff [8]: 0.00361 s⁻¹
B13: P01500046: P01500001(N73P)-FLAG3-HIS6 (VHH)
VHH: B1 VHH with I32M, N73P
notes: also called P0150046

EC50 [3]: 3.19 nM
MFI top [3]: 59100 MFI
koff [4]: 0.000219 s⁻¹
koff [5]: 0.00119 s⁻¹
koff [6]: 0.000219 s⁻¹
koff [7]: 0.000219 s⁻¹
koff [8]: 0.000971 s⁻¹
B14: P01500047: P01500001(G26E, G28T, S30I, I33L)-FLAG3-HIS6 (VHH)
VHH: B1 VHH with G26E, G28T, S30I, I32M, I33L
notes: also called P0150047
